US20220227882A1 (TRUSTEES OF TUFTS COLLEGE, published 2022)

Molecular target: T1, E444A (Homo sapiens, UniProt P78325)
T1 construct: expressed on HEK293 cells; also called human ADAM8 point mutant E444A
T1 sequence (ADAM8, looked up): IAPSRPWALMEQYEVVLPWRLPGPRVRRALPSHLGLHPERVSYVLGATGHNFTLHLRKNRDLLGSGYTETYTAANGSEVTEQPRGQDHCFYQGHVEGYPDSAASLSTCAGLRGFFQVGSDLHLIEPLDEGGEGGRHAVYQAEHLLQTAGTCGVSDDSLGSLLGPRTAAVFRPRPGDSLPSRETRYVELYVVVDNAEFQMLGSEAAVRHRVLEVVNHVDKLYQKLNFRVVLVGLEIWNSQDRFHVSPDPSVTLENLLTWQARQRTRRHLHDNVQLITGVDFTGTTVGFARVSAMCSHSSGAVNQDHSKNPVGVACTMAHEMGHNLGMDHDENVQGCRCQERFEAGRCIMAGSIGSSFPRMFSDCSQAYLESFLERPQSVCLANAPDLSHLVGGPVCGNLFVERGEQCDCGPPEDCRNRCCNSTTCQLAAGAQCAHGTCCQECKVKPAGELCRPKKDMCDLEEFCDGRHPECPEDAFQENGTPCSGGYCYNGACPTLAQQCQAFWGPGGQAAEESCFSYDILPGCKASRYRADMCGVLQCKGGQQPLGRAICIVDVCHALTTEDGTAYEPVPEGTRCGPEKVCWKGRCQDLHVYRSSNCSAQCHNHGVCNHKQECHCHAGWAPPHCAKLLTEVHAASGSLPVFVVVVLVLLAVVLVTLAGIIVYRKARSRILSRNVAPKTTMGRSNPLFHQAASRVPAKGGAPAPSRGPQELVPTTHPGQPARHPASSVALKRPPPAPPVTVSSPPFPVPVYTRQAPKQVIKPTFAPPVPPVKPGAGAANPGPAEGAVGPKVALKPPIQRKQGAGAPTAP
Experiment: high-throughput flow cytometry, HEK293 cells with mutant ADAM8, high stringency; range in parentheses
In short: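 HEK293 cells expressing WT or alanine-mutant ADAM8 were stained for 60 min with ADP2 Fab (0.50 μg/ml) or ADP13 Fab (5.00 μg/ml) in PBS with 10% goat serum under high-stringency conditions. Detection used an Alexa Fluor 488 secondary, with mean cellular fluorescence measured by high-throughput flow cytometry in duplicate.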

B1: ADP13 Fab (Fab, V domains shown)
VH: EVQLQQSGPEMVKPGTSVKISCKASGYTFTDYYINWVKQSHGKSLEWIGDISPNIGGATYNPKFKGKAILTVDKSARTAYMELRSLTSEDSAVYCCTRGGSSYPYFYAMDYWGQGTSVTVSS
VL: DIVMSQSPSSLAVSVGEKVTMSCKSSQSLLYSSNQKKYLAWYQQKPGQSPKLLIYWASTRESGVPDRFTGSGSGTDFTLTISSVKAEDLAVYYCQQFYSYPYTFGGGTKLEINR
**Q.** Which “Binding Reactivity (% WT)” value does the source give for B1 here?
**A.** The value was 70.8 % WT.
